{
  "source": "patent US20250163182A1",
  "about": "(Janssen / Centocor, published 2025)",
  "key": {"human CD3 on T cells [1]": {"molecular_target": "T1, human CD3 on T cells (human, UniProt P07766 23-207)", "T1 construct": "on T cells it stands in the TCR-CD3 complex; also called human T cells; T cells isolated from healthy human donors", "T1 sequence (P07766 23-207 limits assumed)": "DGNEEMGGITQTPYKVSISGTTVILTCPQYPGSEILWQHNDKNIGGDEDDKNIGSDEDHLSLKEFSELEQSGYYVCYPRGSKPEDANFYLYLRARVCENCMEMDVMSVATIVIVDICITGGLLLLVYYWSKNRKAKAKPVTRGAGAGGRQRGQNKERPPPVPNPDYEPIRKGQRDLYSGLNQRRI", "assay": "flow cytometry on human T cells, donor 110040278"}, "human CD3 on T cells [2]": {"molecular_target": "T1, human CD3 on T cells", "assay": "flow cytometry on human T cells, donor 110042496"}, "human ENPP3 on cells": {"molecular_target": "T2, human ENPP3 on cells (human, UniProt O14638 1-875)", "T2 sequence (looked up)": "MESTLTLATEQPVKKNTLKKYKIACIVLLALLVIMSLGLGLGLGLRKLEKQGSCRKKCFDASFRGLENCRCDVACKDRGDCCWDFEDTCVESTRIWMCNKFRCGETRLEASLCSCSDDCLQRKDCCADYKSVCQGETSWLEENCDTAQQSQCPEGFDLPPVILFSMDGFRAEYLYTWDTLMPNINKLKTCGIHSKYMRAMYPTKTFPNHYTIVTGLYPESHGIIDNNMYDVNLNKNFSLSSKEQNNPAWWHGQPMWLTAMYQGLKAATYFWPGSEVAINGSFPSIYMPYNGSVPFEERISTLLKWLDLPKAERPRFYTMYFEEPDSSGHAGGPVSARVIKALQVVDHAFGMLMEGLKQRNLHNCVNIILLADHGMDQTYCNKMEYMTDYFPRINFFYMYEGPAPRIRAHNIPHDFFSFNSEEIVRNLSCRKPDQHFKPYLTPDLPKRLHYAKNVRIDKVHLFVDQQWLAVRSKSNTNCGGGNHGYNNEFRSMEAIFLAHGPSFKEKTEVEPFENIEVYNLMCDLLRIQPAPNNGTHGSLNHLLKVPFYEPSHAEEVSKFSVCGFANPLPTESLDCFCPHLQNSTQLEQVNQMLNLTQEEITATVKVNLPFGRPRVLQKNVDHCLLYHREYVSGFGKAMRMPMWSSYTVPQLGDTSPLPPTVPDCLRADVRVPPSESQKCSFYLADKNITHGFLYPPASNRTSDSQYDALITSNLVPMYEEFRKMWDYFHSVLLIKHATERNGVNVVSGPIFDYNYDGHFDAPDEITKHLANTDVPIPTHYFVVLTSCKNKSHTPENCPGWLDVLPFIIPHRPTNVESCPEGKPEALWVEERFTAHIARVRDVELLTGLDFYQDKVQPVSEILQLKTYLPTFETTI", "assay": "cell-based or functional assay"}, "human CD3 on T cells [3]": {"molecular_target": "T1, human CD3 on T cells", "assay": "flow cytometry on human T cells, donor 110048457"}},
  "data": [
    {"binder": "NPP3B815 (bispecific antibody, human IgG1, kappa, L234A L235A, HC2 carries the NPP3B56 Fab and the hole T366S, L368A, Y407V; Fc with L234A, L235A, D265S; The CPPC linker cysteines form disulfides with engineered Cys at L42 and H105 (Chothia); also called NPP3B56×CD3B2030-N106A; ENPP3×CD3 (NPP3B815)) heavy 1: EIVLTQSPATLSASPGERVTLSCSASSSVSYMNWYQQKPGCAPRRWIYDSSKLASGVPARFSGSGSGRDYTLTISSLEPEDFAVYYCQQWSRNPPTFGGGTKVEIKGGGSGGSGGCPPCGGSGGQVQLVQSGAEVKKPGSSVKVSCKASGYTFTRSTMHWVKQAPGQGLEWIGYINPSSAYTNYNQKFQGRVTLTADKSTSTAYMELSSLRSEDTAVYYCASPQVHYDYAGFPYWGCGTLVTVSSEPKSSDKTHTCPPCPAPEAAGGPSVFLFPPKPKDTLMISRTPEVTCVVVSVSHEDPEVKFNWYVDGVEVHNAKTKPREEQYNSTYRVVSVLTVLHQDWLNGKEYKCKVSNKALPAPIEKTISKAKGQPREPQVYTLPPSREEMTKNQVSLWCLVKGFYPSDIAVEWESNGQPENNYKTTPPVLDSDGSFFLYSKLTVDKSRWQQGNVFSCSVMHEALHNHYTQKSLSLSPGK heavy 2: EVQLVESGGGRVKPGGSLRLSCAASGFTFSDYSMNWVRQAPGKGLEWVSSISSISSYVKYADSVKGRFTMSRDNAKNSLFLQMNSLRDEDMAVYYCARGHYFDYWGQGTLVTVSSASTKGPSVFPLAPSSKSTSGGTAALGCLVKDYFPEPVTVSWNSGALTSGVHTFPAVLQSSGLYSLSSVVTVPSSSLGTQTYICNVNHKPSNTKVDKKVEPKSCDKTHTCPPCPAPEAAGGPSVFLFPPKPKDTLMISRTPEVTCVVVSVSHEDPEVKFNWYVDGVEVHNAKTKPREEQYNSTYRVVSVLTVLHQDWLNGKEYKCKVSNKALPAPIEKTISKAKGQPREPQVYTLPPSREEMTKNQVSLSCAVKGFYPSDIAVEWESNGQPENNYKTTPPVLDSDGSFFLVSKLTVDKSRWQQGNVFSCSVMHEALHNRFTQKSLSLSPGK light: not shown", "values": [
      {"measurement": "EC50", "setting": "human CD3 on T cells [1]", "result": 253, "unit": "nM"},
      {"measurement": "EC50", "setting": "human CD3 on T cells [2]", "result": 147, "unit": "nM"},
      {"measurement": "T-cell activation (CD25) EC50; A704; T-cell donor 110040278; E:T 3:1", "setting": "human ENPP3 on cells", "result": 0.008, "unit": "nM"},
      {"measurement": "T-cell activation (CD25) EC50; A704; T-cell donor 110042496; E:T 3:1", "setting": "human ENPP3 on cells", "result": 0.017, "unit": "nM"},
      {"measurement": "T-cell activation (CD25) EC50; A704; T-cell donor 110042593; E:T 3:1", "setting": "human ENPP3 on cells", "result": 0.013, "unit": "nM"},
      {"measurement": "T-cell activation (CD25) EC50; A704; T-cell donor 110044049; E:T 3:1", "setting": "human ENPP3 on cells", "result": 0.008, "unit": "nM"},
      {"measurement": "T-cell activation (CD25) EC50; A704; T-cell donor 110048457; E:T 3:1", "setting": "human ENPP3 on cells", "result": 0.01, "unit": "nM"},
      {"measurement": "T-cell activation (CD25) EC50; A704; T-cell donor 888668965; E:T 3:1", "setting": "human ENPP3 on cells", "result": 0.008, "unit": "nM"},
      {"measurement": "T-cell activation (CD25) EC50; VMRCRCW; T-cell donor 110040278; E:T 3:1", "setting": "human ENPP3 on cells", "result": 0.007, "unit": "nM"},
      {"measurement": "T-cell activation (CD25) EC50; VMRCRCW; T-cell donor 110042496; E:T 3:1", "setting": "human ENPP3 on cells", "result": 0.015, "unit": "nM"},
      {"measurement": "T-cell activation (CD25) EC50; VMRCRCW; T-cell donor 110042593; E:T 3:1", "setting": "human ENPP3 on cells", "result": 0.017, "unit": "nM"},
      {"measurement": "T-cell activation (CD25) EC50; VMRCRCW; T-cell donor 110044049; E:T 3:1", "setting": "human ENPP3 on cells", "result": 0.009, "unit": "nM"},
      {"measurement": "T-cell activation (CD25) EC50; VMRCRCW; T-cell donor 110048457; E:T 3:1", "setting": "human ENPP3 on cells", "result": 0.009, "unit": "nM"},
      {"measurement": "T-cell activation (CD25) EC50; VMRCRCW; T-cell donor 888668965; E:T 3:1", "setting": "human ENPP3 on cells", "result": 0.016, "unit": "nM"},
      {"measurement": "EC50", "setting": "human CD3 on T cells [3]", "result": 132, "unit": "nM"}
    ]}
  ]
}
